For one substance, inhibition of kallikrein enzymatic activity toward chromogenic substrate S2305 (IC50) and Ki results are on record in patent US20020123091A1.

Assay [1] has as its target human kallikrein (Haematologic Technologies) (human) (UniProt P03952). Briefly: cell-based or functional assay.
For assay [2] the target is unchanged. Briefly: apparent Ki (K1*) calculated from the IC50 as K1*=IC50/(1+(S/KM)), assuming competitive inhibition; chromogenic substrate S2305 1.8 mM, kallikrein 1.25 nM.

pKi: −log10 of the molar value.

Chain of human kallikrein (Haematologic Technologies) (human) (P03952 20-638 limits assumed): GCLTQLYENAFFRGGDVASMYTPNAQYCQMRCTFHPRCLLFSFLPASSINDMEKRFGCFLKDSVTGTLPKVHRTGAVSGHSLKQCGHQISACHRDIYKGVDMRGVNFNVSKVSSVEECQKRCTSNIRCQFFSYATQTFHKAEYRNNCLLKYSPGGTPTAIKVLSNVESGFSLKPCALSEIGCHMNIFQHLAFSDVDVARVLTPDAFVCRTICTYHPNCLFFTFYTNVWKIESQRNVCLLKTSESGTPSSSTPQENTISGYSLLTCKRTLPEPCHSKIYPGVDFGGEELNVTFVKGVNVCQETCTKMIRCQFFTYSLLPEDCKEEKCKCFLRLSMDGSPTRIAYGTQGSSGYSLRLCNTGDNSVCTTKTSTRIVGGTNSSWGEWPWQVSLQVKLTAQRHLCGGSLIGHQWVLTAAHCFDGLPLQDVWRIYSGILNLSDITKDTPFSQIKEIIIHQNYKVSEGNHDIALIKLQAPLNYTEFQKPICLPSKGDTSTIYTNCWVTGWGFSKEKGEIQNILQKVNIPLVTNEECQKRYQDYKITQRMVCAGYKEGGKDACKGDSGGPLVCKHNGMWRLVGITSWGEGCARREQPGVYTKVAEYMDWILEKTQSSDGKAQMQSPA

Regarding “PRO256 polypeptide (from UniProt O43278 36-465)”, in assay [1], the inhibition of kallikrein enzymatic activity toward chromogenic substrate S2305 (IC50) came to 0.104 µM. Besides, the pKi in assay [2] was 7.43.

A word on the pKi: it is the negative decadic logarithm of the Ki, by convention in mol/L.
